Experimental data: patent US20100203046A1

Columns and labels:
[1] = target: human FcγRIII (CD16), CD16a (F158), on CD16-transfected Jurkat cells (human) (UniProt P08637); test: summary of Table 5 assays
[2] = target: human FcγRIII (CD16), CD16a (F158), on CD16-transfected Jurkat cells (human) (UniProt P08637); test: CD16 bridging assay, purified

Sequence of human FcγRIII (CD16), CD16a (F158), on CD16-transfected Jurkat cells (human) (P08637 17-254): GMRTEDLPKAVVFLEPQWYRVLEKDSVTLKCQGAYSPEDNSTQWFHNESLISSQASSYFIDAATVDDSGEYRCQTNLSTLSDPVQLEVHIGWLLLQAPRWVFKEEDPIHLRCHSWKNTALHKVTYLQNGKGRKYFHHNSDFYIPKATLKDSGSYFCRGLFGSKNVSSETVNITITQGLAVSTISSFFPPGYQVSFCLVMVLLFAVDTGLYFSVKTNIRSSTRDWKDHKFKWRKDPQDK

fold decrease in binding vs WT [1]: > 10 fold | fold decrease in binding vs WT [2]: 20 fold
Substance: chCB6-huIgG1 Y296S (antibody)
